# B1: human BMP4: Recombinant human BMP4 protein obtained from R&D Systems (protein, UniProt P12644 293-408, looked up)
# Bone morphogenetic protein 4: SPKHHSQRARKKNKNCRRHSLYVDFSDVGWNDWIVAPPGYQAFYCHGDCPFPLADHLNSTNHAIVQTLVNSVNSSIPKACCVPTELSAISMLYLDEYDKVVLKNYQEMVVEGCGCR
# Assays:
# [1] = in published reports; cited from earlier work
# [2] = DMSO; cited from earlier work
# [3] = tested on: competent telogen skin; assay: Protein administration experiment: human BMP4-soaked beads implanted into competent telogen skin ahead of an anagen-spreading wave; assay type: in vivo, mice; conditions: for propagation of the anagen-spreading (hair propagation) wave around the beads: beads soaked in human BMP4 1 mg per ml, implanted in competent telogen skin of adult mice, protein replenished every 24 h, twelve days later, versus control BSA/albumin beads
# Method: Intracutaneous administration of exogenous protein was performed as follows. Affinity chromatography Affi-gel blue gel beads were obtained from Biorad. Beads were washed in 1×PBS, followed by drying. The beads were then re-suspended in 5 μl protein solution, either control (BSA 1 mg ml^−1) or experimental (human BMP4 1 mg per ml), at 4° C. for 30 min. Recombinant human BMP4 protein was obtained from R&D Systems. Reconstitution of the protein was performed in 4 mM HCl in 0.2% BSA as per the manufacturer's guidelines. Approximately 100 beads were introduced to the competent telogen skin of adult mice by means of a single puncture wound to the skin made by a 30 g syringe (insulin syringe). To replenish proteins, subsequent doses of 1.5 μl protein solution were microinjected to the site of the bead implantation every 24 h by means of a glass micro-needle until the tissue was harvested. After the anagen-spreading wave was noted to pass beyond the bead implantation sites (1 week in the case of FIGS. 2g, h), the skin was collected and inverted for photography. This allows the study of the anagen-wave-spreading dynamics around the control and human BMP4 beads.
# Finally, it was tested whether a direct local delivery of BMP protein can convert competent telogen status to refractory in normal mice. Human-BMP4-soaked beads were implanted into competent telogen skin ahead of an anagen-spreading wave (see Methods in Botchkarev et al. (2001) FASEB J. 15:2205-14). […] Thus, the level of BMP activity can indeed explain the functional status (refractory versus competent) of a skin region.
Molecule,toxicity [1],solubility [2],propagation of the anagen-spreading (hair propagation) wave around the beads [3],propagation of the anagen-spreading (hair propagation) wave around the beads ([3]; listed as Human-BMP4),propagation of the anagen-spreading (hair propagation) wave around the beads ([3]; listed as hBMP4),status of treated skin and hair regeneration after intracutaneous delivery ([3]; delivered intracutaneously via single glass microneedle during competent telogen phase)
c1cc(-c2cnn3cc(-c4ccc(OCCN5CCCCC5)cc4)cnc23)ccn1 [Dorsomorphin],low toxicity,soluble in DMSO,,,,
B1,,,prevented the propagation of the wave around the beads,"caused hair propagation wave (solid arrow) to go around them, creating a new telogen domain","caused hair propagation wave (solid arrowed curve) to go around them, creating a new telogen domain",rendered treated skin refractory and prevented hair regeneration

# Source: US20110293526A1, “COMPOSITIONS AND METHODS TO MODULATE HAIR GROWTH” (University of Southern California, priority 2008, published 2011)
